# From patent publication US20240034757A1 (OXFORD UNIVERSITY INNOVATION, published 2024)
# Where two headings read alike, the source gives them in different places.
# T1: P1132_IXORI (Ixodes ricinus, UniProt V5GZ08 29-106)
# T1 sequence: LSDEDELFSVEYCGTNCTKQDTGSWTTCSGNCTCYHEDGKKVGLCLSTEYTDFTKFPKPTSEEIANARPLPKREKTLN
# T2: P1168_IXORI (Ixodes ricinus, UniProt A0A0K8RCU3 25-106)
# T2 sequence: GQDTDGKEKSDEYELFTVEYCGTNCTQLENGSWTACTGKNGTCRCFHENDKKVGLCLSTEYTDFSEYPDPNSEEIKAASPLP
# T3: P1096_IXORI (Ixodes ricinus, UniProt A0A0K8RKE4 24-114)
# T3 sequence: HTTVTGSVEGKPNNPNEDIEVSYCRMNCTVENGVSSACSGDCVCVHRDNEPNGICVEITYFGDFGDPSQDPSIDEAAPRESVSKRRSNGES
# T4: P1229_IXORI (Ixodes ricinus, UniProt A0A0K8R4R9 32-108)
# T4 sequence: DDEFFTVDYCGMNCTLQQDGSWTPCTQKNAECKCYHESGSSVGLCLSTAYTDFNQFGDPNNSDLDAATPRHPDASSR
# T5: P1156_IXORI (Ixodes ricinus, UniProt V5HBW0 29-108)
# T5 sequence: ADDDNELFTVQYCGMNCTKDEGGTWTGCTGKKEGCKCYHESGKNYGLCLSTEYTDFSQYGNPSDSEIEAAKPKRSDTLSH
# T6: P1166_IXORI (Ixodes ricinus, UniProt A0A0K8RE99 25-110)
# T6 sequence: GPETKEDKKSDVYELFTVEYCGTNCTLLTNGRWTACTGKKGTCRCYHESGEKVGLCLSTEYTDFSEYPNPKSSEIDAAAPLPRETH
# T7: P1174_IXORI (Ixodes ricinus, UniProt V5I3C5 28-104)
# T7 sequence: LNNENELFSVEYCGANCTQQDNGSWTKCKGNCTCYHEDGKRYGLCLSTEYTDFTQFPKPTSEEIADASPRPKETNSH
# T8: P1095_IXORI (Ixodes ricinus, UniProt A0A0K8RCE3 24-112)
# T8 sequence: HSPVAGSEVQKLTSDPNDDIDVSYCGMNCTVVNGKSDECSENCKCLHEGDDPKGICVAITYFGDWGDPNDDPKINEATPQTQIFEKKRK
# T9: P1170_IXORI (Ixodes ricinus, UniProt A0A0K8RD51 29-102)
# T9 sequence: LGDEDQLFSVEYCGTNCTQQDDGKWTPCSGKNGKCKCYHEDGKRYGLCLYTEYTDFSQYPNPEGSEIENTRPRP
# T10: P1134_IXORI (Ixodes ricinus, UniProt A0A0K8RAI0 32-135)
# T10 sequence: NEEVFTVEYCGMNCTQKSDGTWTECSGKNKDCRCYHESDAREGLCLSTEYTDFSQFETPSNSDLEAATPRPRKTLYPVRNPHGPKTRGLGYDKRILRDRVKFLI
# T11: P1127_IXORI (Ixodes ricinus, UniProt A0A0K8RJ67 29-108)
# T11 sequence: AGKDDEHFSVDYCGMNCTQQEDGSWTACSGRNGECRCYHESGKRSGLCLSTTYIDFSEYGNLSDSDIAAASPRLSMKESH
# T12: EVA1_RHISA (Rhipicephalus sanguineus, UniProt P0C8E7 21-114)
# T12 construct: also called Evasin-1
# T12 sequence: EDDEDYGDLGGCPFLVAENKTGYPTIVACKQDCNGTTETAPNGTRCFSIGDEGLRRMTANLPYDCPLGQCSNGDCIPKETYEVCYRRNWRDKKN
# T13: P991_AMBCA (Amblyomma cajennense, UniProt A0A023FFD0 29-136)
# T13 sequence: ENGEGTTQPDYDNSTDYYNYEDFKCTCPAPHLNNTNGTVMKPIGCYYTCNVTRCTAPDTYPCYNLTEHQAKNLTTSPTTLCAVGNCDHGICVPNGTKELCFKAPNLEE
# T14: P467_RHIPU (Rhipicephalus pulchellus, UniProt L7M8Z8 22-127)
# T14 sequence: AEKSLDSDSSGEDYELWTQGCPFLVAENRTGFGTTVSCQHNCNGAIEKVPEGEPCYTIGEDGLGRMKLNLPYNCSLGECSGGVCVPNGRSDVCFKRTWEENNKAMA
# T15: P974_AMBCA (Amblyomma cajennense, UniProt A0A023FDY8 22-118)
# T15 sequence: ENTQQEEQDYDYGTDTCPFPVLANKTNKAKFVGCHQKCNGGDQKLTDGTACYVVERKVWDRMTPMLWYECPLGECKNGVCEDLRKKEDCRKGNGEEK
# T16: P1183_AMBTR (Amblyomma triste, UniProt A0A023G9N9 26-115)
# T16 sequence: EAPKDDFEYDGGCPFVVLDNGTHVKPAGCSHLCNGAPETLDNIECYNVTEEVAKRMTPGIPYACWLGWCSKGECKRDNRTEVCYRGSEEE
# T17: P1180_AMBTR (Amblyomma triste, UniProt A0A023G6B6 26-116)
# T17 sequence: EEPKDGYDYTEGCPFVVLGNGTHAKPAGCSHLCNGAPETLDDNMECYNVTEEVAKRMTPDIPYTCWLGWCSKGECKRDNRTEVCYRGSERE
# T18: P1182_AMBMA (Amblyomma maculatum, UniProt G3MJ83 27-115)
# T18 sequence: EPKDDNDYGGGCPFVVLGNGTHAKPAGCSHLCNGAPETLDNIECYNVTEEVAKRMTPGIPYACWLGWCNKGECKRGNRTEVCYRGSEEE
# T19: P546_AMBCA (Amblyomma cajennense, UniProt A0A023FBW7 22-118)
# T19 sequence: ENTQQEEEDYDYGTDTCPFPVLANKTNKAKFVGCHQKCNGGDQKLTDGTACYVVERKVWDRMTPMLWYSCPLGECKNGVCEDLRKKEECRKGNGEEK
# T20: P672_RHIPU (Rhipicephalus pulchellus, UniProt L7MC74 22-125)
# T20 sequence: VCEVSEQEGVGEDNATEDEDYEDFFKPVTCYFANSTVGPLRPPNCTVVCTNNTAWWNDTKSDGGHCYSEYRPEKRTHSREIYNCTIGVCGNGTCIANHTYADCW
# T21: P983_AMBCA (Amblyomma cajennense, UniProt A0A023FFB5 22-119)
# T21 sequence: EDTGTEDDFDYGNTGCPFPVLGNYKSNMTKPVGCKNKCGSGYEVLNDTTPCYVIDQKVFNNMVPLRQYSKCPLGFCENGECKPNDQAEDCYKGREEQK
# T22: P1181_AMBMA (Amblyomma maculatum, UniProt G3MIX6 26-115)
# T22 sequence: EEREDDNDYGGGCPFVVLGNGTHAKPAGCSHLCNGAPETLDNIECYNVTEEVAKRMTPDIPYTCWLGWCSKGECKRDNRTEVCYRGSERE
# T23: P985_AMBPA (Amblyomma parvum, UniProt A0A023FT45 25-132)
# T23 sequence: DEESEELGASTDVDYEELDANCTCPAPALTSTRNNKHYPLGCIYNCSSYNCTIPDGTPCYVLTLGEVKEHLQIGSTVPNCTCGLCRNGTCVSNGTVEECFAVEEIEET
# T24: CCL21_HUMAN (human, UniProt O00585 24-134)
# T24 sequence: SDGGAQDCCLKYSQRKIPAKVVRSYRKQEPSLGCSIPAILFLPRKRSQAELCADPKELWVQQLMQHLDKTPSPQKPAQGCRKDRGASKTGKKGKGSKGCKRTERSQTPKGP
# T25: CCL23_HUMAN (human, UniProt P55773 22-120)
# T25 sequence: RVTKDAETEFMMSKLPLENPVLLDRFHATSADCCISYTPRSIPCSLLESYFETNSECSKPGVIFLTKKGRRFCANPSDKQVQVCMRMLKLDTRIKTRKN
# T26: CCL5_HUMAN (human, UniProt P13501 24-91)
# T26 sequence: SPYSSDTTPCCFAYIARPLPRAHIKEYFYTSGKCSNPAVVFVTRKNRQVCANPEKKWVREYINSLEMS
# T27: CCL3_HUMAN (human, UniProt P10147 24-92)
# T27 sequence: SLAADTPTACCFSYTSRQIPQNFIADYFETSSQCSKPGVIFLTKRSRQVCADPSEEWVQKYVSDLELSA
# T28: CCL17_HUMAN (human, UniProt Q92583 24-94)
# T28 sequence: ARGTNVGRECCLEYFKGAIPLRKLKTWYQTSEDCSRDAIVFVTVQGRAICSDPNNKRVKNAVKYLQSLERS
# B1: CCL8_HUMAN (ligand, UniProt P80075 24-99, looked up)
# chain: QPDSVSIPITCCFNVINRKIPIQRLESYTRITNIQCPKEAVIFKTKRGKEVCADPKERWVRDSMKHLDQIFQNLKP
# B2: P1243_AMBAM (other)
# chain: RNHTEDNSTEYYDYEEARCACPARHLNNTNGTVLKLLGCHYFCNGTLCTAPDGYPCYNLTAQQVRTLTTYPNTSCAVGVCMKGTCVKNGTMEQCFKTP
# What was measured:
# P1132_IXORI = molecular target: T1, P1132_IXORI; test: BLI
# P1168_IXORI = molecular target: T2, P1168_IXORI; test: BLI
# P1096_IXORI = molecular target: T3, P1096_IXORI; test: BLI
# P1229_IXORI = molecular target: T4, P1229_IXORI; test: BLI
# P1156_IXORI = molecular target: T5, P1156_IXORI; test: BLI
# P1166_IXORI = molecular target: T6, P1166_IXORI; test: BLI
# P1174_IXORI = molecular target: T7, P1174_IXORI; test: BLI
# P1095_IXORI = molecular target: T8, P1095_IXORI; test: BLI
# P1170_IXORI = molecular target: T9, P1170_IXORI; test: BLI
# P1134_IXORI = molecular target: T10, P1134_IXORI; test: BLI
# P1127_IXORI = molecular target: T11, P1127_IXORI; test: BLI
# EVA1_RHISA = molecular target: T12, EVA1_RHISA; test: BLI
# P991_AMBCA = molecular target: T13, P991_AMBCA; test: BLI
# P467_RHIPU = molecular target: T14, P467_RHIPU; test: BLI
# P974_AMBCA = molecular target: T15, P974_AMBCA; test: BLI
# P1183_AMBTR = molecular target: T16, P1183_AMBTR; test: BLI
# P1180_AMBTR = molecular target: T17, P1180_AMBTR; test: BLI
# P1182_AMBMA = molecular target: T18, P1182_AMBMA; test: BLI
# P546_AMBCA = molecular target: T19, P546_AMBCA; test: BLI
# P1243_AMBAM = molecular target: B2; test: BLI
# P672_RHIPU = molecular target: T20, P672_RHIPU; test: BLI
# P983_AMBCA = molecular target: T21, P983_AMBCA; test: BLI
# P1181_AMBMA = molecular target: T22, P1181_AMBMA; test: BLI
# P985_AMBPA = molecular target: T23, P985_AMBPA; test: BLI
# CCL21_HUMAN [1] = molecular target: T24, CCL21_HUMAN; test: BLI
# CCL23_HUMAN [2] = molecular target: T25, CCL23_HUMAN; test: BLI
# CCL5_HUMAN [3] = molecular target: T26, CCL5_HUMAN; test: cell-based or functional assay
# CCL21_HUMAN [4] = molecular target: T24, CCL21_HUMAN; test: BLI; remark: listed apart in the source
# CCL23_HUMAN [5] = molecular target: T25, CCL23_HUMAN; test: BLI; remark: listed apart in the source
# CCL5_HUMAN [6] = molecular target: T26, CCL5_HUMAN; test: yeast surface display FACS
# CCL3_HUMAN = molecular target: T27, CCL3_HUMAN; test: yeast surface display FACS
# CCL8_HUMAN = molecular target: B1; test: yeast surface display FACS
# CCL20_HUMAN = CCL20_HUMAN (human, UniProt P78556 27-96); test: yeast surface display FACS
# CCL11_HUMAN = CCL11_HUMAN (human, UniProt P51671 24-97); test: yeast surface display FACS
# CXCL12_HUMAN = CXCL12_HUMAN (human, UniProt P48061 22-89); test: yeast surface display FACS
# CCL17_HUMAN = molecular target: T28, CCL17_HUMAN; test: yeast surface display FACS
# CXCL12_HUMAN, sequence (P48061 22-89 limits assumed): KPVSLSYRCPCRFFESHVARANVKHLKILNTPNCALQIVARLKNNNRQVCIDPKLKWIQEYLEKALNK
# CCL11_HUMAN, sequence (P51671 24-97 limits assumed): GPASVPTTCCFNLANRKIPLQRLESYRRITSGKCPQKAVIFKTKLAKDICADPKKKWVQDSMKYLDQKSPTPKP
# CCL20_HUMAN, sequence (P78556 27-96 limits assumed): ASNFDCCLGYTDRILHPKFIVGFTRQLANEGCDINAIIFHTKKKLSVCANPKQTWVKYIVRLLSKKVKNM
binder,measurement,setting,value
CXCL11_HUMAN (ligand) FPMFKRGRCLCIGPGVKAVKVADIEKASIMYPSNNCDKIEVIITLKENKGQRCLNPKSKQARLIIKKVERKNF,binding result,P1132_IXORI,no binding (tested: 300 nM)
same,binding result,P1168_IXORI,no binding (tested: 300 nM)
same,binding result,P1096_IXORI,no binding (tested: 300 nM)
same,binding result,P1229_IXORI,no binding (tested: 300 nM)
same,binding result,P1156_IXORI,no binding (tested: 300 nM)
same,binding result,P1166_IXORI,no binding (tested: 300 nM)
same,binding result,P1174_IXORI,no binding (tested: 300 nM)
same,binding result,P1095_IXORI,no binding (tested: 300 nM)
same,binding result,P1170_IXORI,no binding (tested: 300 nM)
same,binding result,P1134_IXORI,no binding (tested: 300 nM)
same,binding result,P1127_IXORI,no binding (tested: 300 nM)
B1,binding result,EVA1_RHISA,no binding (tested: 600 nM)
same,Kd,P991_AMBCA,8.79 nM
same,Kd,P467_RHIPU,2.85 nM
same,Kd,P974_AMBCA,2.58 nM
same,Kd,P1183_AMBTR,1100 nM
same,Kd,P1180_AMBTR,3.6 nM
same,Kd,P1182_AMBMA,29 nM
same,Kd,P546_AMBCA,1.3 nM
same,Kd,P1243_AMBAM,21.9 nM
same,Kd,P672_RHIPU,3.7 nM
same,Kd,P983_AMBCA,7 nM
same,Kd,P1181_AMBMA,14 nM
same,Kd,P985_AMBPA,6.5 nM
B2,Kd,CCL21_HUMAN [1],6.54 nM
same,Kd,CCL23_HUMAN [2],6.62 nM
same,"IC50, THP1 cell migration",CCL5_HUMAN [3],7.87 nM
same,Kd,CCL21_HUMAN [4],6.54 nM
same,Kd,CCL23_HUMAN [5],6.62 nM
P1030_AMBPA (other) GPPSIPGNESIPGCGDAGTTTAPEDNPKHYGTLTDKKGCTLPIIGTWMTAVDHQHLQGTRGERRGPTGKVNLPASCRKNCHGRQEILRDGIPCRKVVGNPKGSKKHLKSGCLRGKCLAGQCVNDGRRISCYVPRNITDTEPTPGLLAE,binding result,CCL5_HUMAN [6],binds
same,binding result,CCL3_HUMAN,binds
same,binding result,CCL8_HUMAN,binds
same,binding result,CCL20_HUMAN,binds
same,binding result,CCL11_HUMAN,binds
same,binding result,CXCL12_HUMAN,binds
same,binding result,CCL17_HUMAN,binds
